Data on 1 molecule can be found in article PMC6232179 (Scientific Reports, 2018).

One data set has as its system COX-2 peroxidase. The conditions noted are these: COX-2 H374Y mutant; cited from earlier work. From the text: Thus, we generated a cell line overexpressing His-tagged COX-2 (HEK293 COX-2 OE) as well as a cell line overexpressing the His-tagged COX-2 H374Y mutant (Fig. 6A), which has a 300-fold reduction in peroxidase activity.
In another data set the test system is IRE1-NLD. In words: MST, COX-2 titrated to RED-labeled IRE1-NLD. It is filed as binding. The conditions noted are these: red labelled IRE1-NLD, Suppl. Fig. S9. The protocol:
MST was carried out using a Monolith NT.115 instrument (NanoTemper). To evaluate COX-2 binding to IRE1-NLD, an increasing concentration of purified COX-2 protein (0–10 µM) was incubated with RED-labeled purified IRE1-NLD protein (NanoTemper; as per manufacturer’s protocol). The reverse was also performed, with RED-labeled purified COX-2 incubated with an increasing concentration of purified IRE1-NLD. Positive (cyclophilin A) and negative controls (carbonic anhydrase) were included. […] Positive (cyclophilin A) and negative controls (carbonic anhydrase) were included. […] Experiments were done in triplicate and data evaluation was performed using the Monolith software (NanoTemper).

B1: COX-2 H374Y: COX-2 H374Y mutant protein (protein)
chain: ANPCCSHPCQNRGVCMSVGFDQYKCDCTRTGFYGENCSTPEFLTRIKLFLKPTPNTVHYILTHFKGFWNVVNNIPFLRNAIMSYVLTSRSHLIDSPPTYNADYGYKSWEAFSNLSYYTRALPPVPDDCPTPLGVKGKKQLPDSNEIVEKLLLRRKFIPDPQGSNMMFAFFAQHFTHQFFKTDHKRGPAFTNGLGHGVDLNHIYGETLARQRKLRLFKDGKMKYQIIDGEMYPPTVKDTQAEMIYPPQVPEHLRFAVGQEVFGLVPGLMMYATIWLREHNRVCDVLKQEHPEWGDEQLFQTSRLILIGETIKIVIEDYVQHLSGYHFKLKFDPELLFNKQFQYQNRIAAEFNTLYHWYPLLPDTFQIHDQKYNYQQFIYNNSILLEHGITQFVESFTRQIAGRVAGGRNVPPAVQKVSQASIDQSRQMKYQSFNEYRKRFMLKPYESFEELTGEKEMSAELEALYGDIDAVELYPALLVEKPRPDAIFGETMVEVGAPFSLKGLMGNVICSPAYWKPSTFGGEVGFQIINTASIQSLICNNVKGCPFTSFSVPDPELIKTVTINASSSRSGLDDINPTVLLKERSTEL
modifications: left off: His6, end not stated, state not stated
notes: COX-2 H374Y mutant protein
Take B1: the “fold reduction in peroxidase activity” value in the data set on COX-2 peroxidase was 300 fold. Also, in the data set with IRE1-NLD, the “binding to IRE1-NLD (MST), wild-type and H374Y” value is listed as “bound to IRE1-NLD”.
